# In patent US20230174955A1:
# Experiments:
# [1] = biological target: full length collagen (with foldON), expressed in Pichia strain PP654 (vector MMV-398); assay: cell-based or functional assay
# [2] = biological target: collagen secreted by strains PP766 and PP767 along with mimiP4H
# [3] = biological target: collagen substrate of the in-vitro hydroxylation reaction with purified secreted mimiP4H
# [4] = biological target: purified collagen derived from strain PP685, added to fermentation supernatant
Molecule,"hydroxylation level of collagen (mass spec of gel band; in vivo, PP654 in fermenters) [1]",hydroxylation of secreted collagen in fermentation supernatant [2],"%HyP, colorimetric assay, in-vitro hydroxylation reaction [3]",hydroxylation of added purified collagen in unpurified fermentation supernatant [4]
"mimi-virus P4H (monomeric prolyl 4-hydroxylase), intracellular, expressed in Pichia strain PP654 from vector MMV-580 (enzyme)",17%,,,
"secreted mimi-virus P4H from Pichia (vector MMV-644; strains PP765, PP766, PP767), with 6X His tag at the C-terminus (protein) VLSKSCVSHFRNVGSLNSRDVNLKDDFSYANIDDPYNKPFVLNNLINPTKCQEIMQFANGKLFDSQVLSGTDKNIRNSQQMWISKNNPMVKPIFENICRQFNVPFDNAEDLQVVRYLPNQYYNEHHDSCCDSSKQCSEFIERGGQRILTVLIYLNNEFSDGHTYFPNLNQKFKPKTGDALVFYPLANNSNKCHPYSLHAGMPVTSGEKWIANLWFRERKFSHHHHHH",,An increase in hydroxylation was observed for both the secreted collagen and added purified collagen,Ni-NTA purified mimiP4H showed 24% hydroxylation,All reactions showed an increase in the hydroxylation over the pre-reaction levels (~3%)
